Consider one substance from PMC9143740.

The target of the test is Interleukin 13 receptor subunit alpha 2 (IL-13Rα2) (human (endogenous in patient-derived HGG cell lines)) (UniProt Q14627).
Sequence of UniProt Q14627 (Q14627 27-380): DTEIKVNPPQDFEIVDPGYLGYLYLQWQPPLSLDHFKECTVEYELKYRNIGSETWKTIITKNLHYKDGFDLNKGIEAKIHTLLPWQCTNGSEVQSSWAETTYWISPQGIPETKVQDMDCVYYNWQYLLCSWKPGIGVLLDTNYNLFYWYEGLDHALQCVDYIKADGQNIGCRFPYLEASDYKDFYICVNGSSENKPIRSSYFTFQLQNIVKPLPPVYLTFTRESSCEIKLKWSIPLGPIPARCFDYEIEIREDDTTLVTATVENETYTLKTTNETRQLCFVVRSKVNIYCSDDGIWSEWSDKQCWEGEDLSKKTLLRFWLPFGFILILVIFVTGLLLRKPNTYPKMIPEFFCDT

On to GB-13 (IL13.E13K-PE4E), for which the IC50 of cell viability (CellTiter-Glo, 72 h), PED17 cells (DMG, IL-13Rα2-high) turned out to be 0.02 ng/mL.
